Source: patent US7252951B2, “Essential downstream component of the wingless signaling pathway and therapeutic and diagnostic applications based thereon” (Universität Zurich, priority 2000, dated 2007)

B1: hLgs/Bcl9(279–392): Fragment (amino acids 279–392) of human Lgs/Bcl9 with a sequence homology domain, expressed as EGFP fusion from pcDNA3 (protein)
chain: PGVENKLIPSVGSPASSTPLPPDGTGPNSTPNNRAVTPVSQGSNSSSADPKAPPPPPVSSGEPPTLGENPDGLSQEQLEHRERSLQTLRDIQRMLFPDEKEFTGAQSGGPQQNP
modifications: left off: large carriers
B2: hLgs/Bcl9(199–392): Fragment (amino acids 199–392) of human Lgs/Bcl9 with a sequence homology domain, expressed as EGFP fusion from pcDNA3 (protein)
chain: TIVSFHIQNISNNKTERSTAPLNTQISALRNDPKPLPQQPPAPANQDQNSSQNTRLQPTPPIPAPAPKPAAPPRPLDRESPGVENKLIPSVGSPASSTPLPPDGTGPNSTPNNRAVTPVSQGSNSSSADPKAPPPPPVSSGEPPTLGENPDGLSQEQLEHRERSLQTLRDIQRMLFPDEKEFTGAQSGGPQQNP
modifications: left off: large carriers

Tested on: Arm-Tcf transcriptional activity
Assay: Tcf-reporter gene (TOPFLASH luciferase) assay in HEK293 cells
Format: cell-based
Conditions: 4 ng pcDNA3-ΔArm, 200 ng pcDNA3-EGFP-hLgs-peptide, 48 h after transfection, normalized for renilla luciferase
Method: FIG. 15(A) Effect of the expression of Lgs sequence homology 2-peptides on Tcf transcriptional activity. HEK293 cells at 50% confluence were plated into 24-well plates and transfected by a lipofection method. 240 ng of TOPFLASH luciferase reporter plasmid (Upstate biotechnology, New York, USA), 4 ng of pcDNA3-ΔArm, 200 ng of pcDNA3-EGFP-Lgs-peptide and 10 ng of a renilla luciferase reporter plasmid pRL-SV40 (Promega Corporation, Madison USA) were diluted into 25 μl of OPTI-MEM Medium (Life Technologies, Inc.) and combined with 1.2 μl of Lipofectamine (Life Technologies, Inc.) in 25 μl OPTI-MEM. After incubation for 20 min, 0.175 ml of OPTI-MEM was added and the mixtures were overlaid onto monolayers of cells. After culturing at 37° C./5% CO2 for 6 hr, 0.225 ml of OPTI-MEM containing 20% FCS was added to the cultures. […]
The effect of Lgs on Tcf transactivation activity can be performed in a cell culture system using a Tcf reporter gene. A Tcf-responsive reporter gene is a contruct which comprises a readily detectable or assayable gene such β-galactosidase, green fluorescent protein, chloramphenicol acetyltransferase or luciferase, linked in cis to a Tcf response element and a minimal promoter. […]

Molecule | Arm-Tcf transcriptional activity (Tcf-driven luciferase)
B1 | strongly inhibit
B2 | strongly inhibit
